Test results taken from the Human Domainome abundance scans (Beltran et al. 2025).

B1: Heterogeneous nuclear ribonucleoprotein U-like protein 2, residues 1 to 40; numbered along this chain, Q1KMD3 (parent)
chain: MEVKRLKVTELRSELQRRGLDSRGLKVDLAQRLQEALDAE

Variants of: B1
Experiment: abundance fitness (aPCA) (normalised: wild type 0, dead -1); higher = more abundant; growth selection in yeast, the domain comes from the species named
Conditions: Homo sapiens

Abundance fitness, by site and new letter:
L20: A -0.352, R -0.558, P -0.65, H -0.572, M -0.033, F -0.353, T -0.563, D -0.304, Q -0.364, C -0.265, V -0.358, G -0.51, N -0.77, I -0.151, E -0.383, Y -0.462, S -0.496, W -0.624
K7: Q 0.067, L -0.143, D 0.135, P -0.065, A -0.069, C -0.158, N 0.305, S 0.141, V -0.274, I -0.388, R -0.153, F -0.484, G 0.015
D21: I -0.871, H -0.422, G -0.572, L -0.557, F -0.591, M -0.453, K -0.428, C -0.068, W -0.74, T -0.217, Y -0.204, A -0.41, R -0.645
R18: M -0.215, W -1.08, Y -0.652, S -0.615, G -0.481, L -0.228, I -0.721, A -0.699, C -0.668, E -0.571, T -0.627, F -0.685, K -0.356, H -0.726, P -0.436, Q -0.614
V8: Y 0.072, T 0.033, P -0.298, L -0.025, G -0.354, F -0.289, Q -0.169, S -0.167, M -0.04, W -0.435, N -0.27, A -0.077, I -0.265, C -0.146, K -0.163, R -0.334, D 0.024
T9: A -0.04, V -0.153, G -0.017, R -0.012, E 0.113, P -0.132, C -0.054, W -0.103, Y -0.135, Q 0.022, I 0.102, M 0.074, S -0.083, H 0.163, K 0.099, L -0.27
G19: Y -1.04, Q -0.178, V -0.789, H -0.196, R -0.444, I -1.12, C -0.379, A -0.369, E -0.396, P -0.555, K -0.545, S -0.276, M -0.676, D -0.006, L -0.64, T -0.521
E14: K -0.782, Y -0.634, P -0.953, A -0.34, V -0.845, R -0.752, S -0.6, D -0.635, H -0.512, W -0.942, I -0.551, L -0.311, T -0.869, G -0.743, F -0.752, M -0.274, C -0.489
R17: N -0.77, Q 0.008, G -0.252, V -0.219, A 0.053, T -0.184, D -0.218, K 0.112, P -0.432, S -0.092, H -0.276, M 0.006, Y -0.455, C -0.282, L -0.129, I -0.173, E -0.121, W -0.521
R12: E -0.147, T -0.165, G -0.507, D -0.403, P -0.751, L -0.495, Q 0.036, W -0.845, V -0.112, F -0.574, S -0.332, H -0.339, A -0.212
L25: C 0.019, W -0.248, H 0.105, E 0.257, Y -0.025, I -0.095, G 0.095, D 0.151, T 0.155, S 0.118
